Experimental data taken from US20260242478A1 (published 2026).
Where no end group is shown, it is not given here.

How the values were obtained:
[1] = target: T1, Anti-CD28 scFv (VH - linker 1 - VL) (biotinylated (site not stated)); test: clonal phage ELISA on biotinylated anti-CD28 scFv captured on neutravidin plates, anti-M13 HRP detection;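 further: crude phage supernatants were used, and before phage were added the wells were pretreated with blocking buffer, either alone or with soluble CD28 protein, without washing in between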
T1 sequence (scFv, as listed by the source): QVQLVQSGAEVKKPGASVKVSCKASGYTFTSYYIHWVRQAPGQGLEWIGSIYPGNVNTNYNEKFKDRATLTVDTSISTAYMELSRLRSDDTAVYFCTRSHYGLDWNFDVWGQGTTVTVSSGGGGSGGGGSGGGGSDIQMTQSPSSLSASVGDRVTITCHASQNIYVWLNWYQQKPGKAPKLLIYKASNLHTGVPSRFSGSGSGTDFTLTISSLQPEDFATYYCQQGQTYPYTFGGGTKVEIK

[2] = target: T1, Anti-CD28 scFv (VH - linker 1 - VL); test: clonal phage ELISA on captured anti-CD28 scFv, wells pre-incubated with soluble CD28 as competitor;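 further: crude phage supernatants used, bound phage read out via HRP-linked anti-M13 antibody, with comparison wells given blocking buffer lacking soluble CD28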
Procedure: (§1) Clonal phage were harvested as crude supernatants and screened via standard enzyme linked immunosorbent assays (ELISAs). […] Prior to the addition of clonal phage, wells were incubated with blocking buffer and CD28 soluble protein or blocking buffer alone. Without washing or aspirating, clonal phage supernatants were then added to the wells and incubated for a short time. Wells were then washed followed by detection of bound phage using a horse radish peroxidase conjugated anti-M13 antibody.

[3] = target: T2, anti-CD28 scFv (VH - linker 1 - VL) (biotinylated (site not stated)); test: phage ELISA; biotinylated anti-CD28 scFv on neutravidin plate, clonal phage supernatant, anti-M13-HRP detection;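 further: before phage addition, wells were pretreated with soluble CD28 protein in blocking buffer, or with blocking buffer only as the comparison, then phage were added without washing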
T2 sequence (scFv, as listed by the source): as above

[4] = target: T2, anti-CD28 scFv (VH - linker 1 - VL); test: phage ELISA as above, wells pre-incubated with soluble CD28 (competitor);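 further: ELISA of crude clonal phage supernatants added to wells pre-treated with soluble CD28 in blocking buffer, bound phage read out with HRP-conjugated anti-M13 antibody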
Procedure: as §1

[5] = target: anti-CD28 scFv (VH - linker 1 - VL) (biotinylated (site not given)); test: phage ELISA as before, wells pre-incubated with soluble CD28 (competitor)
Sequence of anti-CD28 scFv (VH - linker 1 - VL) (biotinylated (site not given)) (scFv, as listed by the source): as above

Binder	CD28 scFv signal [1]	CD28 scFv signal in presence of CD28 [2]	CD28 scFv signal [3]	CD28 scFv signal in presence of CD28 [4]	CD28 scFv signal in presence of CD28 [5]
MDWCPRHLWDECFF (tested as crude clonal phage supernatant) [Phage-118]	2.46	0.663	–	–	–
MDWCPRFLWDECFF (tested as crude clonal phage supernatant; also called position 7 is F in the position column) [Phage-133]	2.28	0.246	–	–	–
MDWCPRHLWYACFN (tested as crude clonal phage supernatant) [Phage-144]	2.01	0.159	–	–	–
MDWCPRHLWNVCFS (peptide, not shown: large carriers, Clonal phage of the Peptide-9 library) [Phage-150]	–	–	1.61	0.176	–
MHWCPIYLWDECFN (tested as crude clonal phage supernatant) [Phage-136]	2.23	0.193	–	–	–
MDWCPKYLWDKCFH (peptide, not shown: large carriers, Clonal phage of the Peptide-9 library) [Phage-152]	–	–	1.54	0.109	–
MHWCPEYLWNECFA (peptide, not shown: large carriers, cysteine pairing not given here; also: displayed as fusion to phage pIII, linker and pIII sequence not given here, Clonal phage of the Peptide-9 library) [Phage-148]	–	–	1.69	0.092	–
MDWCPRSLWNVCFF (tested as crude clonal phage supernatant) [Phage-141]	2.13	0.356	–	–	–
MHWCPRDLWVVCFN (peptide, not shown: large carriers, cysteine pairing not given here; also: fused to phage pIII protein, pIII and linker sequence not given here, Clonal phage of the Peptide-9 library) [Phage-147]	–	–	1.83	0.112	–
MDWCPRSLWIYCFN (tested as crude clonal phage supernatant) [Phage-131]	2.34	0.401	–	–	–
MDWCPRYLWHMCYS (tested as crude clonal phage supernatant) [Phage-119]	2.42	1.17	–	–	–
MDFCPISLWHECFF (peptide, not shown: large carriers, Clonal phage of the Peptide-9 library) [Phage-151]	–	–	1.58	0.129	–
MDWCPMDLWDVCFN (tested as crude clonal phage supernatant) [Phage-140]	2.15	0.263	–	–	–
MDWCPMYLWNECFS (tested as crude clonal phage supernatant; not shown: pIII of the bacteriophage to which the peptide is fused) [Phage-80, clonal phage peptide MDWCPMYLWNECFS]	–	–	–	–	0.411
MDWCPRDLWDVCFA (tested as crude clonal phage supernatant) [Phage-139]	2.16	0.28	–	–	–
MDWCPTNLWHECFA (tested as crude clonal phage supernatant) [Phage-138]	2.16	0.096	–	–	–
MDWCPSYLWHECFA (tested as crude clonal phage supernatant) [Phage-134]	2.28	0.198	–	–	–
MDWCPRDLWNVCFA (peptide, not shown: large carriers, Clonal phage of the Peptide-9 library) [Phage-154]	–	–	1.38	0.145	–
MDWCPRDLWAVCFA (peptide, not shown: large carriers, Clonal phage of the Peptide-9 library) [Phage-149]	–	–	1.67	0.089	–
MDWCPRDLWNVCFN (peptide, not shown: large carriers, cysteine pairing not given here; also: displayed as fusion to phage pIII, linker and pIII sequence not given here, Clonal phage of the Peptide-9 library) [Phage-169]	–	–	0.74	0.108	–
MDWCPRFLWSVCFN (tested as crude clonal phage supernatant; not shown: pIII of the bacteriophage to which the peptide is fused) [Phage-81, clonal phage peptide …]	–	–	–	–	1.15

Binder	CD28 scFv signal [1]	CD28 scFv signal in presence of CD28 [2]	CD28 scFv signal [3]	CD28 scFv signal in presence of CD28 [4]	CD28 scFv signal in presence of CD28 [5]
MDWCPIHLWNECFA (tested as crude clonal phage supernatant) [Phage-123]	2.4	0.203	–	–	–
MDWCPKFLWHECFS (tested as crude clonal phage supernatant; also called position 7 is F in the position column) [Phage-135]	2.28	0.142	–	–	–
MDWCPSYLWTVCFA (tested as crude clonal phage supernatant) [Phage-129]	2.34	0.096	–	–	–
MDWCPRYLWDACFF (tested as crude clonal phage supernatant) [Phage-130]	2.34	0.168	–	–	–
LDWCPLNLWDLCYF (tested as crude clonal phage supernatant) [Phage-143]	2.03	0.095	–	–	–
MDWCPRHLWDLCFA (peptide, not shown: large carriers, cysteine pairing not given here; also: displayed as fusion to phage pIII, linker and pIII sequence not given here, Clonal phage of the Peptide-9 library) [Phage-166]	–	–	0.925	0.096	–
MDWCPRHLWDQCFA (peptide, not shown: large carriers, Clonal phage of the Peptide-9 library) [Phage-161]	–	–	1.12	0.144	–
MDWCPRHLWDLCFF (peptide, not shown: large carriers, Clonal phage of the Peptide-9 library) [Phage-153]	–	–	1.4	0.182	–
MDWCPRHLWSECFY (peptide, not shown: large carriers, cysteine pairing not given here; also: fused to phage pIII protein, pIII and linker sequence not given here, Clonal phage of the Peptide-9 library) [Phage-146]	–	–	1.92	0.199	–
MDWCPKHLWIECFA (peptide, not shown: large carriers, cysteine pairing not given here; also: fused to phage pIII protein, pIII and linker sequence not given here, Clonal phage of the Peptide-9 library) [Phage-145]	–	–	1.98	0.132	–
MDWCPRPLWDMCFF (tested as crude clonal phage supernatant) [Phage-124]	2.4	0.138	–	–	–
MDWCPRYLWHECFH (tested as crude clonal phage supernatant) [Phage-137]	2.19	0.308	–	–	–
MDWCPRDLWHACFS (tested as crude clonal phage supernatant) [Phage-120]	2.41	0.173	–	–	–
MDWCPTYLWFECFN (tested as crude clonal phage supernatant) [Phage-132]	2.33	0.224	–	–	–
MDWCPRDLWIECFF (tested as crude clonal phage supernatant) [Phage-128]	2.37	0.137	–	–	–
MDWCPRDLWDQCYA (tested as crude clonal phage supernatant) [Phage-122]	2.41	0.201	–	–	–
MDWCPVILWDFCFN (tested as crude clonal phage supernatant; also called position 11 is F in the position column) [Phage-142]	2.03	0.173	–	–	–
MDWCPRALWNECFA (tested as crude clonal phage supernatant) [Phage-127]	2.38	0.375	–	–	–
MDWCPVSLWHVCFY (tested as crude clonal phage supernatant) [Phage-125]	2.4	0.409	–	–	–
MDWCPRDLWHVCFF (tested as crude clonal phage supernatant) [Phage-121]	2.41	0.268	–	–	–
MDWCPRFLWNECFN (tested as crude clonal phage supernatant) [Phage-126]	2.4	0.503	–	–	–
